The results in this text go back to PMC12781765, “Atypical GNAO1 variants in severe childhood speech disorders: clinical, genetic, and molecular insights” (Molecular Autism, 2025).

The experiment addresses T1, GFP-RGS19 (UniProt P49795 1-217).
T1 construct: RGS19, regulator of G protein signaling 19; Plasmid published earlier; also called GFP-tagged RGS19 construct; source: HEK293T, transfected, in lysate
T1 sequence (looked up): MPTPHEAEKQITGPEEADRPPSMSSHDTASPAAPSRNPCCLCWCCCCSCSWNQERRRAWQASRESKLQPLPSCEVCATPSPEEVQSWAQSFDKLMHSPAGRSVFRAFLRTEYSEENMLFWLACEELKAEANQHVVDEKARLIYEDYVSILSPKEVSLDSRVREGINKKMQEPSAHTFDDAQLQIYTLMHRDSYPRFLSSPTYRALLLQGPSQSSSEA
Description: co-IP; HEK293T co-transfected with the GFP-tagged construct and non-tagged Gαo variants; IP of the GFP fusion with a recombinant GST-tagged nanobody against GFP; Western blot with antibodies against Gαo and GFP; blots quantified with ImageJ. The note with it: partners not purified. A general note: A western blot detects proteins with antibodies after separation by electrophoresis.

B1: Gαo L39_G40insV (non-tagged) (natural protein, human, UniProt P09471-1 1-354, looked up)
chain: MGCTLSAEERAALERSKAIEKNLKEDGISAAKDVKLLLLVGAGESGKSTIVKQMKIIHEDGFSGEDVKQYKPVVYSNTIQSLAAIVRAMDTLGIEYGDKERKADAKMVCDVVSRMEDTEPFSAELLSAMMRLWGDSGIQECFNRSREYQLNDSAKYYLDSLDRIGAADYQPTEQDILRTRVKTTGIVETHFTFKNLHFRLFDVGGQRSERKKWIHCFEDVTAIIFCVALSGYDQVLHEDETTNRMHESLMLFDSICNNKFFIDTSIILFLNKKDLFGEKIKKSPLTICFPEYTGPNTYEDAAAYIQAQFESKNRSPNKEIYCHMTCATDTNNIQVVFDAVTDIIIANNLRGCGLY
notes: Gαo (GNAO1) with the patient variant p.Leu39_Gly40insVal (c.116_118dup), introduced by site-directed mutagenesis into the non-tagged Gαo plasmid; De novo patient variant; also called p.Leu39_Gly40insVal; source: HEK293T, transfected (in lysate for co-IP; in cells for BRET)
For B1, the “percent of the binding of wild-type” value was below 15%.
